The chains are these.
B1: ET150-156 scFv (scFv)
scFv: QSALTQPASVSGSPGQSITISCTGTSRDVGGYNYVSWYQQYPGKAPKLMIYEVSKRPSGVSNRFSGSKSGNTASLTISGLQAEDEADYYCSSYTSSSTLDFGTGTKVTVLGSRGGGGSGGGGSGGGGSLEMAQVQLVQSGAEVKQPGASVKVSCQASGYTFTTYYMHWVRQAPGQGLEWMGIINPNGGGTFYAQKFQDRVTMTRDTSTGTVYMELSSLRSDDTAVYYCARGHKVYKSHPTGGYDRWGQGTLVTVSS
notes: also called ET150-6 scFv
B2: ET150-154 scFv (scFv)
scFv: QAVLTQPPSASGTPGQRVTISCSGSSSNIGSNYVYWYQQLPGTAPKLLIYRNNQRPSGVPDRFSGSKSGTSASLAISGLRSEDEADYYCAAWDDSLSGYVFGTGTKVTVLGSRGGGGSGGGGSGGGGSLEMAQVQLVQSGAEVQRPGASVRVSCKAIAYTFTDYYIHWVRQAPGQGPEWMGWINPKSGRTQYAPKFQDRVTLARETPISTASMELRGLTSDDTAVYYCARVYGYSRWSGFDLWGQGTLVTVSS
notes: also called ET150-4 scFv
B3: ET150-157 scFv (scFv)
scFv: SYELTQPPSASGTPGQRVTISCSGSSSNIGSNYVSWYQQLPGTAPKLLIYRNNQRPSGVPDRFSGSKSGTSASLAISGLRSEDEADYYCAAWDDSLSGVVFGGGTKLTVLGSRGGGGSGGGGSGGGGSLEMAEVQLVQSGAEVKKPGSSVKVSCKASGGTFSSYAISWVRQAPGQGLEWMGGIIPIFGTAKYAQKFQGRVTITADESTSTAYMELSSLRSEDTAVYYCARSHVAWSLLDYWGQGTLVTVSS
notes: also called ET150-7 scFv
B4: ET150-159 scFv (scFv)
scFv: QSVLTQPPSASGTPGQRVTISCSGSSSNIGSNYVYWYQQLPGTAPKLLIYRNNQRPSGVPDRFSGSKSGTSASLAISGLRSEDEADYYCAAWDDSLSGWVFGGGTKLTVLGSRGGGGSGGGGSGGGGSLEMAQVQLVQSGAEVKKPGSSVKVSCKASGGTFSSYAISWVRQAPGQGLEWMGWMNPNSGNTGYAQKFQGRVTMTRNTSISTAYMELSSLRSEDTAVYYCARYQSYKGSQSDSWGQGTLVTVSS
notes: also called ET150-9 scFv
B5: ET150-5 mIgG1 (antibody, V domains shown)
VH: EVQLVESGGGLVKPGGSLRLSCAASGFTFSDYYMSWIRQAPGKGLEWVSYISSSGSTIYYADSVKGRFTISRDNAKNSLYLQMNSLRAEDTAVYYCARGYGKAYDQWGQGTLVTVSS
VL: QSVLTQPPSASGTPGQRVTISCSGSRSNVGGNYVFWYQQVPGATPKLLIYRSNQRPSGVPDRFAGSKSGSSASLAISGLRSEDEADYYCATWDDSLSGFVFGTGTKVTVLG
notes: also called ET150-155
B6: ET150-8 mIgG1 (antibody, V domains shown)
VH: QVQLVESGGGLVHPGGSLRLSCAASGFTFRSHSMNWVRQAPGKGLEWVSSISSDSTYTYYADSVKGRFTISRDNAKNSLYLQMNSLRAEDTAVYYCARSGGQWKYYDYWGQGTLVTVSS
VL: SSELTQDPAVSVALGQTVRITCQGDSLRSYYASWYQQKPGQAPVLVIYGKNNRPSGIPDRFSGSSSGNTASLTITGAQAEDEADYYCNSRDSSGNPPVVFGGGTKLTVLG
notes: also called ET150-158
B7: ET150-18 mIgG1 (antibody, V domains shown)
VH: EVQLVESGGGLIQPGGSLRLSCAASGFTFSNYAMNWVRQAPGKGLEWVSTINGRGSSTIYADSVKGRFTISRDNSKNTLYLQMNSLRAEDTATYYCARYISRGLGDSWGQGTLVTV
VL: QSVVTQPPSMSAAPGQQVTISCSGGNSNIERNYVSWYLQLPGTAPKLVIFDNDRRPSGIPDRFSGSKSGTSATLGITGLQTGDEADYYCGTWDSSLRGWVFGGGTKLTVLG
notes: also called ET150-168
B8: ET150-2 mIgG1 (antibody, V domains shown)
VH: QMQLVQSGAEVKKPGASVKVSCKASGYTFNRYAITWVRQAPGQGLEWMGWISAYNGNSHYAQKLQGRVTMTTDTSTGTAYMELRRLRSDDTAVYYCARMAYDSWGQGTLVTVSS
VL: QSVLTQPASVSGSPGQSLTISCTGTSNDVGAYKYVSWYQQYPGKAPKLILYDVFKRPSGVSNRFSGSKSDNTASLTISGLQAEDEADYYCFSLTSSNTYVFGTGTKVTVLG
notes: also called ET150-152
B9: ET150-155 scFv (scFv)
scFv: QSVLTQPPSASGTPGQRVTISCSGSRSNVGGNYVFWYQQVPGATPKLLIYRSNQRPSGVPDRFAGSKSGSSASLAISGLRSEDEADYYCATWDDSLSGFVFGTGTKVTVLGSRGGGGSGGGGSGGGGSLEMAEVQLVESGGGLVKPGGSLRLSCAASGFTFSDYYMSWIRQAPGKGLEWVSYISSSGSTIYYADSVKGRFTISRDNAKNSLYLQMNSLRAEDTAVYYCARGYGKAYDQWGQGTLVTVSS
notes: also called ET150-5 scFv
B10: ET150-152 scFv (scFv)
scFv: QSVLTQPASVSGSPGQSLTISCTGTSNDVGAYKYVSWYQQYPGKAPKLILYDVFKRPSGVSNRFSGSKSDNTASLTISGLQAEDEADYYCFSLTSSNTYVFGTGTKVTVLGSRGGGGSGGGGSGGGGSLEMAQMQLVQSGAEVKKPGASVKVSCKASGYTFNRYAITWVRQAPGQGLEWMGWISAYNGNSHYAQKLQGRVTMTTDTSTGTAYMELRRLRSDDTAVYYCARMAYDSWGQGTLVTVSS
notes: also called ET150-2 scFv
B11: ET150-151 scFv (scFv)
scFv: QSVVTQPASVSGSPGQSITISCTGTSSDVGGYNYVSWYQQHPGKAPKLMIYDVSKRPSGVSNRFSGSKSGNTASLTISGLQAEDEADYYCSSYTSSSTLVFGGGTKLTVLGSRGGGGSGGGGSGGGGSLEMAEVQLVESGGAFVQPGGSLRLSCAASGFTFSSYAMTWVRQAPGKGLEWVSTISGRGRSTFYADSVKGRFTISRDNSKNTLYLQMNSLRAEDTAVYYCARYYHAGAFDLWGQGTLVTVSS
notes: also called ET150-1 scFv
B12: ET150-168 scFv (scFv)
scFv: QSVVTQPPSMSAAPGQQVTISCSGGNSNIERNYVSWYLQLPGTAPKLVIFDNDRRPSGIPDRFSGSKSGTSATLGITGLQTGDEADYYCGTWDSSLRGWVFGGGTKLTVLGSRGGGGSGGGGSGGGGSLEMAEVQLVESGGGLIQPGGSLRLSCAASGFTFSNYAMNWVRQAPGKGLEWVSTINGRGSSTIYADSVKGRFTISRDNSKNTLYLQMNSLRAEDTATYYCARYISRGLGDSWGQGTLVTV
notes: also called ET150-18 scFv
B13: ET150-158 scFv (scFv)
scFv: SSELTQDPAVSVALGQTVRITCQGDSLRSYYASWYQQKPGQAPVLVIYGKNNRPSGIPDRFSGSSSGNTASLTITGAQAEDEADYYCNSRDSSGNPPVVFGGGTKLTVLGSRGGGGSGGGGSGGGGSLEMAQVQLVESGGGLVHPGGSLRLSCAASGFTFRSHSMNWVRQAPGKGLEWVSSISSDSTYTYYADSVKGRFTISRDNAKNSLYLQMNSLRAEDTAVYYCARSGGQWKYYDYWGQGTLVTVSS
notes: also called ET150-8 scFv

For one assay, the target named is T1, human G-protein coupled receptor family C group 5 member D (GPRC5D) (human, UniProt Q9NZD1 1-345).
T1 construct: Overexpressed on 3T3 cells in the FACS assays; also called human GPRC5D; 3T3-GPRC5D
T1 sequence (Q9NZD1 whole entry): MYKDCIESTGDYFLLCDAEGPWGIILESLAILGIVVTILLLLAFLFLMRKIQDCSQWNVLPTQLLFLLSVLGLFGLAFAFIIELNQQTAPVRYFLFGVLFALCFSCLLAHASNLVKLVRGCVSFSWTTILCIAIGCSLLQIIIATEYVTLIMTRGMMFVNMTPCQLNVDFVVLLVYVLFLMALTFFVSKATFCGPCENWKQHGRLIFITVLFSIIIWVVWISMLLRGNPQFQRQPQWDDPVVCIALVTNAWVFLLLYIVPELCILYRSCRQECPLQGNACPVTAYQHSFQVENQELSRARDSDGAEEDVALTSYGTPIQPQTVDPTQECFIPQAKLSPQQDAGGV
Nature of the assay: FACS, scFv phage clones on 3T3 cells overexpressing GPRC5D.
As to B1, the binding result was “binds”. The same measure, in the same setting: to B2 belongs “binds”. The same measure, in the same setting: with B3 the entry was “binds”; with B4, “binds”.

The next assay concerns the target T1, human G-protein coupled receptor family …. Nature of the assay: flow cytometry (MFI, FL2) on 3T3-GPRC5D and parental 3T3 cells at 10 and 1 µg/mL, PE-labelled anti-mouse IgG secondary antibody. The procedure: Each antibody (ET150-1, ET150-2, ET150-5, ET150-8, ET150-18) was incubated with 3T3 or 3T3-GPRC5D cells at 10 or 1 μg/mL, then with anti-M13 mouse antibody. Finally PE-labeled anti-mouse IgG 2nd antibody was added to the reaction. The binding was measured by FACS and expressed as mean fluorescence intensity (MFI) (FIG. 13). Cells incubated with 2nd antibody alone, ET901 mIgG1 isotype control and cells only were used as negative controls.
On the technique in general: In flow cytometry, cells or beads pass a laser one at a time.
In the case of B5, the binding result is listed as “binds”. Turning to B6, the binding result is reported as “binds”.

As for B7, the binding result was “binds”. For B8, the binding result is listed as “binds”.

Another assay has the same target. Nature of the assay: flow cytometry: phage clone on 3T3-GPRC5D cells (printed 3T3-ET150), anti-M13 mouse antibody, then APC-labelled anti-mouse IgG; control without phage (A04 anti-M13+ APC mIgG) median 10.9. The method, then:
FACS Screening. […] Phage clones were incubated with 3T3-GPRC5D cell line, then with anti-M13 mouse antibody. Finally APC-labeled anti-mouse IgG 2nd antibody was added to the reaction after washing again. The binding was measured by FACS and expressed as mean fluorescence intensity (MFI). Cells incubated with M13 K07 helper phage and cells only were used as negative controls.
In the case of B9, the “Median, RED2-HLin” value worked out at 3220. The same measure, in the same setting: to B10 belongs 2400; to B11, 3230; to B12, 3180. The same measure, in the same setting: with B13 the figure was 3110.

The values are drawn from US20240076370A1 (Memorial Sloan Kettering, published 2024).
